# Reference: patent publication US20250277032A1 (BIOND BIOLOGICS, published 2025)
# B1: 3F6 (antibody, V domains shown)
# VH: EVKLVESGGGLVKPGGSLKLSCAASGFTFSSYAMSWVRQTPAKRLEWVAAITFGGGNTYYPDSVKGRFTISRDNARNTLYLQMSSLRSEDTAMYYCARHGDGNYDFYAMDYWGQGTSVTVSS
# VL: DIVMTQSPSSLTVTAGEKVTMSCKSSQSLLNSGNQKNYLTWYQQKPGQPPKLLIYWASTRESGVPDRFTGSGSRTDFTLTISRVQAEDLAVYYCQNDYSYPLTFGAGTKLELK
# notes: Hybridoma (mouse) antibody
# B2: 7A5 (antibody, V domains shown)
# VH: EVKLVESGGGLVKPGGSLKLSCAASGFTFSSYAMSWVRQTPAKRLEWVATISSDGGNTYYTDSVKGRFTISRDNARNTLDLQMSSLRSEDTAMYYCARHDGRGALDYWGQGTSVTVSS
# VL: DIQMTQTTSSLSASLGDRVTISCRASQDISNYLNWYQQKPDGTVKLLIYYTSRLHSGVPSRFSGSGSGTDYSLTISNLEQEDIATYFCQQGNTLPWTFGGGTKLEIK
# notes: Hybridoma (mouse) antibody
# Molecular target: T1, human ILT3 on the cell surface (recombinant human ILT3 exogenously overexpressed on HEK cells); ILT3 on THP-1 … (human, UniProt Q8NHJ6 22-448)
# T1 construct: whole, on cells; also called membranal ILT3; hILT3
# Assay: flow cytometry on HEK cells overexpressing recombinant human ILT3
row,Binder,binding result
1,B1,binds
2,B2,binds
